{"source": "patent CN109776681A", "binders": {"B1": {"name": "抗免疫球蛋白G的Fc段的纳米抗体 (编号为I4的阳性克隆) (VHH)", "VHH": "QVQLVESGGGLVQAGGSLRLSCAASGGTFYSYAMGWFRQAPGKKREFVAAIRWTSGITYYADSVKDRFTISRDNAKNTVYLQMTGLKPEDTAVYYCALGPDNSDSYDYWGQGTQVTVSS"}}, "target": "人IgG蛋白 (human)", "assay": "BLI (Octet RED96), human IgG loaded on the sensor, nanobody at 50 μg/mL in solution", "data": [{"binder": "B1", "values": [{"measurement": "Kd", "value": 3.69, "unit": "nM"}, {"measurement": "koff", "value": 0.00157, "unit": "s⁻¹"}, {"measurement": "kon", "value": 426000, "unit": "M⁻¹ s⁻¹"}]}]}
